Results from paper PMC6684406 (Nature structural & molecular biology, 2019).

Target: T1, Pmt1 (protein O-mannosyltransferase 1), C-terminal 3×FLAG-tagged (S. cerevisiae, UniProt P33775 1-817, N-glycan on N390)
T1 sequence (looked up): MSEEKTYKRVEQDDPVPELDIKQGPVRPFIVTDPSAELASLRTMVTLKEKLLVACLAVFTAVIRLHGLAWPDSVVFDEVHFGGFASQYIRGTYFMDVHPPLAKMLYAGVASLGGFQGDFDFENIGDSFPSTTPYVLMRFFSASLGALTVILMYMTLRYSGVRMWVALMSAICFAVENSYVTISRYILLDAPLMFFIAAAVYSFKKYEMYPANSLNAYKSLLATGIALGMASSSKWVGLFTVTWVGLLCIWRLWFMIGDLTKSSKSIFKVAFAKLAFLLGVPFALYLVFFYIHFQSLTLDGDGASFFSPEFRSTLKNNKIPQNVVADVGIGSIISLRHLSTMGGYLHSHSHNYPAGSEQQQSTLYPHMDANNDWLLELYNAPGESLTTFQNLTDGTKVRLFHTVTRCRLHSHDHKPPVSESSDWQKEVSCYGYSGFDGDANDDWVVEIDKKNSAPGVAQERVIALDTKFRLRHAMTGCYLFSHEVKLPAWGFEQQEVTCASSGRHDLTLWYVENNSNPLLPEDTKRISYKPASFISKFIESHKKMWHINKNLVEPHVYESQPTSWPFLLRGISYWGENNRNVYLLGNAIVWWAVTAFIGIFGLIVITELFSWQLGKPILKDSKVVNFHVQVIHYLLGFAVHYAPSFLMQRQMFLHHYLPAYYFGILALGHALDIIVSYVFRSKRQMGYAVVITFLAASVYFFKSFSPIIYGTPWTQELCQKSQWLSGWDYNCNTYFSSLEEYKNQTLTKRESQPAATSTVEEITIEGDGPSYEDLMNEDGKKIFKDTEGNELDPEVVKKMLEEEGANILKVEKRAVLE
Test: cryo-EM structure

B1: Pmt2 (protein O-mannosyltransferase 2) (enzyme, S. cerevisiae, UniProt P31382 1-759, looked up)
chain: MSSSSSTGYSKNNAAHIKQENTLRQRESSSISVSEELSSADERDAEDFSKEKPAAQSSLLRLESVVMPVIFTALALFTRMYKIGINNHVVWDEAHFGKFGSYYLRHEFYHDVHPPLGKMLVGLSGYLAGYNGSWDFPSGEIYPDYLDYVKMRLFNASFSALCVPLAYFTAKAIGFSLPTVWLMTVLVLFENSYSTLGRFILLDSMLLFFTVASFFSFVMFHNQRSKPFSRKWWKWLLITGISLGCTISVKMVGLFIITMVGIYTVIDLWTFLADKSMSWKTYINHWLARIFGLIIVPFCIFLLCFKIHFDLLSHSGTGDANMPSLFQARLVGSDVGQGPRDIALGSSVVSIKNQALGGSLLHSHIQTYPDGSNQQQVTCYGYKDANNEWFFNRERGLPSWSENETDIEYLKPGTSYRLVHKSTGRNLHTHPVAAPVSKTQWEVSGYGDNVVGDNKDNWVIEIMDQRGDEDPEKLHTLTTSFRIKNLEMGCYLAQTGNSLPEWGFRQQEVVCMKNPFKRDKRTWWNIETHENERLPPRPEDFQYPKTNFLKDFIHLNLAMMATNNALVPDPDKFDYLASSAWQWPTLNVGLRLCGWGDDNPKYFLLGTPASTWASSVAVLAFMATVVILLIRWQRQYVDLRNPSNWNVFLMGGFYPLLAWGLHYMPFVIMSRVTYVHHYLPALYFALIILAYCFDAGLQKWSRSKCGRIMRFVLYAGFMALVIGCFWYFSPISFGMEGPSSNFRYLNWFSTWDIADKQEA
modifications: N-glycan on N131
stoichiometry N: 1
